Positions count from the first letter of the chain named. Names and notes keep the numbering of the source.
T1: Murine Gαq (amino acids 7-359), biotinylated (mouse, UniProt P21279 7-359, biotinylated with biotinamidohexanoic acid N-hydroxysuccinimide)
T1 sequence (looked up): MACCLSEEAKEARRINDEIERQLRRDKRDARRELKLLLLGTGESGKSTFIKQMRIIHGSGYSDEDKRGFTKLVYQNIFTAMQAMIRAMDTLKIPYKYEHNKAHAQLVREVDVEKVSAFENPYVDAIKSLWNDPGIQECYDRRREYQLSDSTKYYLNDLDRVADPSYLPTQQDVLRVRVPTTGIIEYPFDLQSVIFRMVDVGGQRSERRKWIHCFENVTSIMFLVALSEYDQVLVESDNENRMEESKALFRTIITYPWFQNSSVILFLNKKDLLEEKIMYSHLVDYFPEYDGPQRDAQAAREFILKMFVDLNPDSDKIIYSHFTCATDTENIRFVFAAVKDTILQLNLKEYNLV

B1: Full-length RGS2, fluorescently labeled with Alexa Fluor-488 (natural protein, human, UniProt P41220 1-211, looked up)
chain: MQSAMFLAVQHDCRPMDKSAGSGHKSEEKREKMKRTLLKDWKTRLSYFLQNSSTPGKPKTGKKSKQQAFIKPSPEEAQLWSEAFDELLASKYGLAAFRAFLKSEFCEENIEFWLACEDFKKTKSPQKLSSKARKIYTDFIEKEAPKEINIDFQTKTLIAQNIQEATSGCFTTAQKRVYSLMENNSYPRFLESEFYQDLCKKPQITTEPHAT
modifications: labeled with Alexa Fluor-488 carboxylic acid, 2,3,5,6-tetrafluorophenyl ester, 5-isomer
B2: RGS2 RH domain (residues 72-203), wild type (domain or fragment, human)
chain: GEFGSPSPEEAQLWSEAFDELLASKYGLAAFRAFLKSEFCEENIEFWLACEDFKKTKSPQKLSSKARKIYTDFIEKEAPKEINIDFQTKTLIAQNIQEATSGCFTTAQKRVYSLMENNSYPRFLESEFYQDLCKKPQ
B3: RGS2 RH domain (residues 72-203) E182A (domain or fragment, human)
chain: B2 chain with E116A
B4: RGS2 RH domain (residues 72-203) K175A (domain or fragment, human)
chain: B2 chain with K109A
B5: RGS2 RH domain (residues 72-203) N183A (domain or fragment, human)
chain: B2 chain with N117A
B6: RGS2 RH domain (residues 72-203) N183F (domain or fragment, human)
chain: B2 chain with N117F
B7: RGS2 RH domain (residues 72-203) N183K (domain or fragment, human)
chain: B2 chain with N117K
B8: RGS2 RH domain (residues 72-203) S179D (domain or fragment, human)
chain: B2 chain with S113D
B9: RGS2 RH domain (residues 72-203) S179K (domain or fragment, human)
chain: B2 chain with S113K
B10: RGS2 RH domain (residues 72-203) S179M (domain or fragment, human)
chain: B2 chain with S113M
B11: RGS2 RH domain (residues 72-203) S179N (domain or fragment, human)
chain: B2 chain with S113N

biological target: T1, Murine Gαq (amino acids 7-359), …; experiment: bead-based flow cytometry binding assay

Kd [nM]	Binder
3.3	B1

biological target: Gαi/q-R183C chimera (Gαq R183C with the N-terminal helix of Gαi), biotinylated (not stated | mouse); experiment: bead-based flow cytometry binding assay

Kd [nM]	Binder
22	B1

biological target: T1, Murine Gαq (amino acids 7-359), …; experiment: bead-based flow cytometry competition assay

IC50 [nM]	Binder
270	B2
300	B3
560	B4
1500	B5
170	B6
7100	B7
16000	B8
3400	B9
130	B10
690	B11
